# Values quoted from earlier work in publication PMC7355470.
# Read-outs that look alike come from different tables or passages of the source.
# How the values were obtained:
# PSGL-1 (Homo sapiens) [1] = target: PSGL-1 (Homo sapiens) (UniProt Q14242)
# ESL-1 (Mus musculus) = ESL-1 (Mus musculus) (UniProt Q61543); assay: SPR
# [2] = target: P-selectin (Homo sapiens) (UniProt P16109)
# [3] = target: P-selectin (Homo sapiens) (UniProt P16109); remark: listed apart in the source
# [4] = target: P-selectin (Homo sapiens) (UniProt P16109); remark: listed apart in the source
# GlyCAM-1 = GlyCAM-1 (UniProt Q02596)
# PSGL-1 (Homo sapiens) [5] = target: PSGL-1 (Homo sapiens) (UniProt Q14242); remark: listed apart in the source
# [6] = target: P-selectin (Homo sapiens) (UniProt P16109); remark: listed apart in the source
# [7] = target: PSGL-1 glycosulfopeptide N-terminal binding region peptide (Homo sapiens) (UniProt Q14242)
# [8] = target: PSGL-1 glycopeptide (non-sulfated) N-terminal binding region peptide (Homo sapiens) (UniProt Q14242)
# [9] = target: PSGL-1 glycosulfopeptide N-terminal binding region peptide (Homo sapiens) (UniProt Q14242); remark: listed apart in the source
# [10] = target: PSGL-1 glycosulfopeptide N-terminal binding region peptide (Homo sapiens) (UniProt Q14242); remark: listed apart in the source
# [11] = target: E-selectin (Homo sapiens) (UniProt P16581)
# [12] = target: P-selectin (Homo sapiens) (UniProt P16109); remark: listed apart in the source
# [13] = target: L-selectin (Homo sapiens) (UniProt P14151)
# Sequence of PSGL-1 (Q14242 42-320): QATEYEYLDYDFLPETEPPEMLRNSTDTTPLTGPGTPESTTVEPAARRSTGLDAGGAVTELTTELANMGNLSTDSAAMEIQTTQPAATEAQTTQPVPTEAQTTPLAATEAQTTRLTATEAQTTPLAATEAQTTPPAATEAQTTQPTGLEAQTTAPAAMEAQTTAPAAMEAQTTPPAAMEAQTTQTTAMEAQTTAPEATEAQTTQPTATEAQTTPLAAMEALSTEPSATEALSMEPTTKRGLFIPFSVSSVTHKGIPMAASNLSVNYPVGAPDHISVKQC
# Sequence of UniProt Q61543 (Q61543 28-1141): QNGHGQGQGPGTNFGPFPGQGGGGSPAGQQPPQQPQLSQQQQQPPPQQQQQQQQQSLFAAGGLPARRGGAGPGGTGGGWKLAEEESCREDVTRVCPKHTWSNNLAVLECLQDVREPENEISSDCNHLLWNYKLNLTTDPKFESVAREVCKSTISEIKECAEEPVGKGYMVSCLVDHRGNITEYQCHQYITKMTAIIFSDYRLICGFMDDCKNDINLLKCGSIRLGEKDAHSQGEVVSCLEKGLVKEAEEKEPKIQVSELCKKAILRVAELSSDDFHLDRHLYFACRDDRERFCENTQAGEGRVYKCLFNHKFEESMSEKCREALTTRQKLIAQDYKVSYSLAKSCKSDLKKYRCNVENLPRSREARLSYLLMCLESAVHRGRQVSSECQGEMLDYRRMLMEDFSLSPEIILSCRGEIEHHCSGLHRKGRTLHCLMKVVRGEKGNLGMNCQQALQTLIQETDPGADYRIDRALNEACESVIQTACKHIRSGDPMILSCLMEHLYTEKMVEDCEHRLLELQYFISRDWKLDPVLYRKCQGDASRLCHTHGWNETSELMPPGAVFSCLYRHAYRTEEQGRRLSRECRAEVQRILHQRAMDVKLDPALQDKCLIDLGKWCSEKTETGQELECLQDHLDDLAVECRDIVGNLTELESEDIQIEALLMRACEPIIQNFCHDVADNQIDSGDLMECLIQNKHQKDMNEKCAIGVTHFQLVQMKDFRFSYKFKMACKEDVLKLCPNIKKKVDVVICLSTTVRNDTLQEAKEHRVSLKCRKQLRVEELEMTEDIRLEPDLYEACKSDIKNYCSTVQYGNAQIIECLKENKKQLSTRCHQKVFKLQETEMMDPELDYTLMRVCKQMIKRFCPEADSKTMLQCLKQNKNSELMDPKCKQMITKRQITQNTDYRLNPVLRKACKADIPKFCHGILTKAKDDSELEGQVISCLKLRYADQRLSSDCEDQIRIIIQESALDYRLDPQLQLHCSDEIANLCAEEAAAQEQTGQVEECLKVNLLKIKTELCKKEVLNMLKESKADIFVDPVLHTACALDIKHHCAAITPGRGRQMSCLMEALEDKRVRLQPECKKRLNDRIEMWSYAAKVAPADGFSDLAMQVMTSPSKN
# Sequence of PSGL-1 glycopeptide (non-sulfated) (Q14242 42-320): as the sequence (Q14242 42-320) above
# Sequence of UniProt Q02596 (Q02596 20-151): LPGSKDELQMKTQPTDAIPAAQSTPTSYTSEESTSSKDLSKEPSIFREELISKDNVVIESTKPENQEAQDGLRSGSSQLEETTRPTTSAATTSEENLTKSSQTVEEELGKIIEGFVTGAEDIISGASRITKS
substance,measurement,setting,value
E-selectin (from UniProt P16581),Kd,PSGL-1 (Homo sapiens) [1],15 µM
same,Kd,ESL-1 (Mus musculus),62 µM
PSGL-1 glucosulfopeptide (from UniProt Q14242),Kd,[2],10 µM
same,Kd,[3],0.65 µM
same,Kd,[4],6 µM
L-selectin (from UniProt P18337),Kd,GlyCAM-1,108 µM
L-selectin (from UniProt P14151),Kd,PSGL-1 (Homo sapiens) [5],5 µM
E-selectin (from UniProt Q00690),Kd,ESL-1 (Mus musculus),62 µM
PSGL-1 glycopeptide (non-sulfated) (from UniProt Q14242),Kd,[6],25 µM
P-selectin (from UniProt P16109),Kd,[7],6 µM
same,Kd,[8],25 µM
same,Kd,[9],10 µM
same,Kd,[10],0.65 µM
PSGL-1 (from UniProt Q14242),Kd,[11],15 µM
same,Kd,[12],0.32 µM
same,Kd,[13],5 µM
